Data reported in patent US20230165981A1, “[161Tb]-BASED RADIOPEPTIDES” (priority 2021, published 2023).
“And” between values parts separate entries of the source, which are not always exact repeats. Equal values may be shown once. Read-outs that look alike come from different tables or passages of the source.

Tests used:
[1] = n-octanol/PBS distribution coefficient (logD), shake-flask method; assay type: physicochemical; settings: n-octanol/PBS pH 7.4
Method: An aliquot of the radiolabeled peptide (0.5 MBq, 25 µL) was added to a mixture of 1475 µL PBS pH 7.4 and 1500 µL n-octanol. The respective tubes were vortexed for 60 sec and centrifuged for 6 min at 2500 rpm followed by the measurement of the activity concentration in a defined volume of each layer using a γ-counter (Perkin Elmer, Wallac Wizard 1480). The logD values were calculated as the logarithm of the ratio of counts per minute (cpm) measured in the n-octanol phase relative to the cpm measured in the PBS pH 7.4 phase. The experiments were performed three times with five replicates for each radiopeptide and the logD value was expressed as the average ± standard deviation (SD) of the values obtained in each experiment. […] A p value <0.05 was considered statistically significant.

AR42J tumor-bearing mice [2] = assay: Biodistribution: optimum injected molar amount; settings: 2 h p.i.
AR42J tumors = assay: Preclinical therapy study in AR42J tumor-bearing mice; assay type: in vivo; settings: for Median survival / tumor growth delay / Time frame of euthanasia: 2 x 10 MBq, 0.2 nmol; for tumor growth delay: Day 0 and 7; for Time frame of euthanasia: end of study = 49 days; for tumor doubling time: regrowth phase
[3] = system: metastatic functional neuroendocrine neoplasm of the pancreatic tail; assay: First-in-man scintigraphy and SPECT/CT; assay type: in vivo, human; settings: 0.5-113 hours p.i., patient
Method: A patient with a metastatic functional neuroendocrine neoplasm of the pancreatic tail was injected with 161TbDOTATOC. Scintigraphy and SPECT were recorded. […] FIGS. 18A, 18B, 18C, and 18D show whole-body images obtained at 0.5 hours post-injection (p.i.) (FIG. 18A), 2.5 hours p.i. (FIG. 18B), 20 hours p.i. (FIG. 18C), and 113 hours p.i. (FIG. 18D) of 161Tb-DOTATOC. Early blood-pool activity was noticed in the heart (H) and blood vessels (BV).
FIGS. 19A, 19B, and 19C show SPECT/CT images obtained at 19 hours after injection of 161Tb-DOTATOC. (FIG. 19A) Coronal section, (FIG. 19B) sagittal section, and (FIG. 19C) transverse section.

AR42J tumor-bearing mice [4] = settings: 0.2 nmol/mouse
Method: All applicable international, national, and/or institutional guidelines for the care and use of animals were followed. In particular, all animal experiments were carried out according to the guidelines of Swiss Regulations for Animal Welfare. The preclinical studies were ethically approved by the Cantonal Committee of Animal Experimentation and permitted by the responsible cantonal authorities (license N° 75721 and 79692). Five-week-old female, athymic nude mice (CD-1 Foxn-⅟nu) were obtained from Charles River Laboratories (Sulzfeld, Germany). Mice were subcutaneously inoculated with AR42J tumor cells (5 × 10^6 cells in 100 µL PBS) for SPECT/CT imaging, biodistribution and therapy studies. The SPECT/CT and biodistribution studies were performed 10-14 days after tumor cell inoculation when the tumor size reached a volume of ~250 mm^3.
The mice were sacrificed at 0.5 h, 2 h, 4 h, 24 h and 48 h p.i, selected tissues and organs were collected, weighed, and the accumulated activity was counted using a γ-counter (Perkin Elmer). The decay-corrected data were listed as % IA/g. The data were analyzed for significance using a two-way ANOVA with Tukey’s multiple comparison post-tests. A p-value of <0.05 was considered statistically significant.

[5] = Assessment of early side effects in therapy mice; settings: endpoint of therapy
Method: Early side effects were assessed based on the RBW of each mouse which was monitored every second day. When an endpoint was reached or at the end of the study (after 49 days), relevant organs and tissues were collected, weighed and put into relation to the brain mass and body weight of the respective mouse. This allowed comparison of organ-to-brain and organ-to-body mass weight ratios. In addition, blood plasma parameters from blood collected immediately after euthanasia were measured.
RBW, organ mass and mass ratios at the endpoint: The RBW was monitored every second day. Mice were euthanized when a predefined endpoint criterion was reached or when the study was terminated at Day 49. RBWs, organ masses, organ mass ratios (kidney-to-brain, liver-to-brain and spleen-to-brain) and organ mass to body weight ratios (kidney-to-body mass, liver-to-body mass and spleen-to-body mass) were analyzed for significance using a one-way ANOVA test with a Tukey’s multiple comparisons post-test. A p-value of <0.05 was considered as statistically significant.
Blood plasma chemistry: Immediately before euthanasia of the mice that reached the endpoint, blood was sampled from the retrobulbar vein. The values of creatinine (CRE), blood urea nitrogen (BUN), alkaline phosphatase (ALP), total bilirubin (TBIL) and albumin (ALB) were determined in the plasma after centrifugation of the blood using a dry chemistry analyzer (DRI-CHEM 4000i, FUJIFILM, Japan). The average blood plasma parameters of each group were analyzed for significance using a one-way ANOVA test with a Tukey’s multiple comparisons post-test. A p-value of <0.05 was considered as statistically significant.

C[C@@H](O)[C@@H]1NC(=O)[C@H](CCCCN)NC(=O)[C@@H](Cc2c[nH]c3ccccc23)NC(=O)[C@H](Cc2ccc(O)cc2)NC(=O)[C@@H](NC(=O)[C@@H](Cc2ccccc2)NC(=O)CN2CCN(CC(=O)O)CCN(CC(=O)O)CCN(CC(=O)O)CC2)CSSC[C@@H](C(=O)N[C@H](CO)[C@@H](C)O)NC1=O [[^161Tb]Tb-DOTATOC] [metal not drawn]
LogD [1]: -3.3 ± 0.2
Tu-to-adr (tumor-to-adrenals) (AR42J tumor-bearing mice [2]; 0.040 nmol/mouse): 24 ± 1
Tu-to-blood (AR42J tumor-bearing mice [2]; 0.040 nmol/mouse): 187 ± 12
Tu-to-kidney (AR42J tumor-bearing mice [2]; 0.040 nmol/mouse): 1.8 ± 0.2
Tu-to-liver (AR42J tumor-bearing mice [2]; 0.040 nmol/mouse): 73 ± 3 and 74 ± 3
Tu-to-adr (tumor-to-adrenals) (AR42J tumor-bearing mice [2]; 0.20 nmol/mouse): 34 ± 7
Tu-to-blood (AR42J tumor-bearing mice [2]; 0.20 nmol/mouse): 221 ± 56
Tu-to-kidney (AR42J tumor-bearing mice [2]; 0.20 nmol/mouse): 1.5 ± 0.1
Tu-to-liver (AR42J tumor-bearing mice [2]; 0.20 nmol/mouse): 76 ± 14
Biodistribution: AR42J Tumor (AR42J tumor-bearing mice [2]; 1.0 nmol/mouse): 8.2 ± 0.2 % IA/g
Biodistribution: Adrenals (AR42J tumor-bearing mice [2]; 1.0 nmol/mouse): 0.25 ± 0.06 % IA/g
Biodistribution: Blood (AR42J tumor-bearing mice [2]; 1.0 nmol/mouse): ≤0.10 % IA/g
Biodistribution: Femur (AR42J tumor-bearing mice [2]; 1.0 nmol/mouse): ≤0.10 % IA/g
Biodistribution: Heart (AR42J tumor-bearing mice [2]; 1.0 nmol/mouse): ≤0.10 % IA/g
Biodistribution: Intestines (AR42J tumor-bearing mice [2]; 1.0 nmol/mouse): 0.21 ± 0.13 % IA/g
Biodistribution: Kidneys (AR42J tumor-bearing mice [2]; 1.0 nmol/mouse): 9.9 ± 1.3 % IA/g
Biodistribution: Liver (AR42J tumor-bearing mice [2]; 1.0 nmol/mouse): 0.17 ± 0.01 % IA/g
Biodistribution: Lung (AR42J tumor-bearing mice [2]; 1.0 nmol/mouse): 0.27 ± 0.03 % IA/g
Biodistribution: Muscle (AR42J tumor-bearing mice [2]; 1.0 nmol/mouse): ≤0.10 % IA/g
Biodistribution: Pancreas (AR42J tumor-bearing mice [2]; 1.0 nmol/mouse): 0.71 ± 0.07 % IA/g
Biodistribution: Spleen (AR42J tumor-bearing mice [2]; 1.0 nmol/mouse): 0.11 ± 0.02 % IA/g
Biodistribution: Stomach (AR42J tumor-bearing mice [2]; 1.0 nmol/mouse): 0.74 ± 0.38 % IA/g
Median survival (AR42J tumors): 21 days
tumor growth delay (AR42J tumors): 9.0 ± 5.5 days
Time frame of euthanasia (AR42J tumors): 20 to 26 days
tumor doubling time (AR42J tumors): 3.4 ± 3.6 days
uptake in whole-body scintigraphy [3]: Pathological uptake was demonstrated in the bilobar liver
Biodistribution: AR42J Tumor (AR42J tumor-bearing mice [4]; 0.5 h p.i.): 15 ± 2 % IA/g
Biodistribution: AR42J Tumor (AR42J tumor-bearing mice [4]; 2 h p.i.): 14 ± 1 % IA/g
Biodistribution: Adrenals (AR42J tumor-bearing mice [4]; 2 h p.i.): 0.43 ± 0.11 % IA/g
Biodistribution: Femur (AR42J tumor-bearing mice [4]; 2 h p.i.): 0.12 ± 0.03 % IA/g
Biodistribution: Heart (AR42J tumor-bearing mice [4]; 2 h p.i.): ≤0.10 % IA/g
Biodistribution: Intestines (AR42J tumor-bearing mice [4]; 2 h p.i.): 0.24 ± 0.01 % IA/g
Biodistribution: Kidneys (AR42J tumor-bearing mice [4]; 2 h p.i.): 9.4 ± 0.4 % IA/g
Biodistribution: Liver (AR42J tumor-bearing mice [4]; 2 h p.i.): 0.19 ± 0.03 % IA/g
Biodistribution: Lung (AR42J tumor-bearing mice [4]; 2 h p.i.): 0.47 ± 0.05 % IA/g
Biodistribution: Muscle (AR42J tumor-bearing mice [4]; 2 h p.i.): ≤0.10 % IA/g
Biodistribution: Pancreas (AR42J tumor-bearing mice [4]; 2 h p.i.): 1.5 ± 0.2 % IA/g
Biodistribution: Spleen (AR42J tumor-bearing mice [4]; 2 h p.i.): 0.18 ± 0.02 % IA/g
ALB (albumin) [5]: 23 ± 2 g/L
ALP (alkaline phosphatase) [5]: 76 ± 21 U/L
BUN (blood urea nitrogen) [5]: 5.8 ± 1.0 mmol/L
CRE (plasma creatinine) [5]: <18 (n=6) µmol/L
TBIL (total bilirubin) [5]: < 3 µmol/L and 4 ± 1 µmol/L

C[C@@H](O)[C@@H]1NC(=O)[C@H](CCCCN)NC(=O)[C@@H](Cc2c[nH]c3ccccc23)NC(=O)[C@H](Cc2ccc(O)cc2)NC(=O)[C@@H](NC(=O)[C@@H](Cc2ccccc2)NC(=O)CN2CCN(CC(=O)O)CCN(CC(=O)O)CCN(CC(=O)O)CC2)CSSC[C@@H](C(=O)N[C@H](CO)[C@@H](C)O)NC1=O [[^177Lu]Lu-DOTATOC] [metal not drawn]
LogD [1]: -3.1 ± 0.2
Biodistribution: AR42J Tumor (AR42J tumor-bearing mice [2]; 0.040 nmol/mouse): ~ 17 % IA/g
Biodistribution: Blood (AR42J tumor-bearing mice [2]; 0.040 nmol/mouse): ≤0.10 % IA/g
Biodistribution: Heart (AR42J tumor-bearing mice [2]; 0.040 nmol/mouse): ≤0.10 % IA/g
Biodistribution: Kidneys (AR42J tumor-bearing mice [2]; 0.040 nmol/mouse): 10 ± 2 % IA/g
Biodistribution: Muscle (AR42J tumor-bearing mice [2]; 0.040 nmol/mouse): ≤0.10 % IA/g
Tu-to-adr (tumor-to-adrenals) (AR42J tumor-bearing mice [2]; 0.040 nmol/mouse): 28 ± 2
Tu-to-blood (AR42J tumor-bearing mice [2]; 0.040 nmol/mouse): 213 ± 41
Tu-to-kidney (AR42J tumor-bearing mice [2]; 0.040 nmol/mouse): 1.9 ± 0.3
Tu-to-liver (AR42J tumor-bearing mice [2]; 0.040 nmol/mouse): 100 ± 8
Tu-to-lung (tumor-to-lungs) (AR42J tumor-bearing mice [2]; 0.040 nmol/mouse): 17 ± 3
Tu-to-panc (tumor-to-pancreas) (AR42J tumor-bearing mice [2]; 0.040 nmol/mouse): 9.7 ± 1.8
Tu-to-sto (tumor-to-stomach) (AR42J tumor-bearing mice [2]; 0.040 nmol/mouse): 11 ± 2
Biodistribution: Blood (AR42J tumor-bearing mice [2]; 0.20 nmol/mouse): <0.10 % IA/g
Biodistribution: Femur (AR42J tumor-bearing mice [2]; 0.20 nmol/mouse): 0.10 ± 0.01 % IA/g
Biodistribution: Heart (AR42J tumor-bearing mice [2]; 0.20 nmol/mouse): <0.10 % IA/g
Biodistribution: Kidneys (AR42J tumor-bearing mice [2]; 0.20 nmol/mouse): 10 ± 3 % IA/g
Biodistribution: Muscle (AR42J tumor-bearing mice [2]; 0.20 nmol/mouse): <0.10 % IA/g
Tu-to-adr (tumor-to-adrenals) (AR42J tumor-bearing mice [2]; 0.20 nmol/mouse): 47 ± 29
Tu-to-blood (AR42J tumor-bearing mice [2]; 0.20 nmol/mouse): 235 ± 60
Tu-to-kidney (AR42J tumor-bearing mice [2]; 0.20 nmol/mouse): 1.9 ± 0.4
Tu-to-liver (AR42J tumor-bearing mice [2]; 0.20 nmol/mouse): 118 ± 24
Tu-to-lung (tumor-to-lungs) (AR42J tumor-bearing mice [2]; 0.20 nmol/mouse): 27 ± 6
Tu-to-panc (tumor-to-pancreas) (AR42J tumor-bearing mice [2]; 0.20 nmol/mouse): 10 ± 2
Tu-to-sto (tumor-to-stomach) (AR42J tumor-bearing mice [2]; 0.20 nmol/mouse): 15 ± 4
Biodistribution: AR42J Tumor (AR42J tumor-bearing mice [2]; 1.0 nmol/mouse): 8.9 ± 1.5 % IA/g
Biodistribution: Adrenals (AR42J tumor-bearing mice [2]; 1.0 nmol/mouse): 0.28 ± 0.08 % IA/g
Biodistribution: Blood (AR42J tumor-bearing mice [2]; 1.0 nmol/mouse): <0.10 % IA/g
Biodistribution: Femur (AR42J tumor-bearing mice [2]; 1.0 nmol/mouse): <0.10 % IA/g
Biodistribution: Heart (AR42J tumor-bearing mice [2]; 1.0 nmol/mouse): <0.10 % IA/g
Biodistribution: Intestines (AR42J tumor-bearing mice [2]; 1.0 nmol/mouse): 0.20 ± 0.05 % IA/g
Biodistribution: Kidneys (AR42J tumor-bearing mice [2]; 1.0 nmol/mouse): 11 ± 1 % IA/g
Biodistribution: Liver (AR42J tumor-bearing mice [2]; 1.0 nmol/mouse): 0.26 ± 0.07 % IA/g
Biodistribution: Lung (AR42J tumor-bearing mice [2]; 1.0 nmol/mouse): 0.37 ± 0.06 % IA/g
Biodistribution: Muscle (AR42J tumor-bearing mice [2]; 1.0 nmol/mouse): <0.10 % IA/g
Biodistribution: Pancreas (AR42J tumor-bearing mice [2]; 1.0 nmol/mouse): 0.80 ± 0.13 % IA/g
Biodistribution: Spleen (AR42J tumor-bearing mice [2]; 1.0 nmol/mouse): 0.15 ± 0.03 % IA/g
Biodistribution: Stomach (AR42J tumor-bearing mice [2]; 1.0 nmol/mouse): 0.65 ± 0.11 % IA/g
Tu-to-adr (tumor-to-adrenals) (AR42J tumor-bearing mice [2]; 1.0 nmol/mouse): 29 ± 3
Tu-to-lung (tumor-to-lungs) (AR42J tumor-bearing mice [2]; 1.0 nmol/mouse): 25 ± 3
Tu-to-panc (tumor-to-pancreas) (AR42J tumor-bearing mice [2]; 1.0 nmol/mouse): 13 ± 1
Tu-to-sto (tumor-to-stomach) (AR42J tumor-bearing mice [2]; 1.0 nmol/mouse): 15 ± 5
kidney uptake (AR42J tumor-bearing mice [2]; irrespective of the applied setting (0.04-1.0 nmol)): ~ 10%
Median survival (AR42J tumors): 19.5 days
tumor growth delay (AR42J tumors): 6.0 ± 4.4 days
Time frame of euthanasia (AR42J tumors): 12 to 22 days
tumor doubling time (AR42J tumors): 3.4 ± 0.8 days
ALB (albumin) [5]: 24 ± 5 g/L
ALP (alkaline phosphatase) [5]: 77 ± 8 U/L
BUN (blood urea nitrogen) [5]: 6.3 ± 0.9 mmol/L
CRE (plasma creatinine) [5]: <18 (n=5) µmol/L
TBIL (total bilirubin) [5]: < 3 µmol/L and 4 ± 1 µmol/L
